Test results taken from patent US20230279089A1 (GlaxoSmithKline, published 2023).

T1: Human TLL1 (human, UniProt O43897 148-1013, limits assumed)
T1 sequence (looked up): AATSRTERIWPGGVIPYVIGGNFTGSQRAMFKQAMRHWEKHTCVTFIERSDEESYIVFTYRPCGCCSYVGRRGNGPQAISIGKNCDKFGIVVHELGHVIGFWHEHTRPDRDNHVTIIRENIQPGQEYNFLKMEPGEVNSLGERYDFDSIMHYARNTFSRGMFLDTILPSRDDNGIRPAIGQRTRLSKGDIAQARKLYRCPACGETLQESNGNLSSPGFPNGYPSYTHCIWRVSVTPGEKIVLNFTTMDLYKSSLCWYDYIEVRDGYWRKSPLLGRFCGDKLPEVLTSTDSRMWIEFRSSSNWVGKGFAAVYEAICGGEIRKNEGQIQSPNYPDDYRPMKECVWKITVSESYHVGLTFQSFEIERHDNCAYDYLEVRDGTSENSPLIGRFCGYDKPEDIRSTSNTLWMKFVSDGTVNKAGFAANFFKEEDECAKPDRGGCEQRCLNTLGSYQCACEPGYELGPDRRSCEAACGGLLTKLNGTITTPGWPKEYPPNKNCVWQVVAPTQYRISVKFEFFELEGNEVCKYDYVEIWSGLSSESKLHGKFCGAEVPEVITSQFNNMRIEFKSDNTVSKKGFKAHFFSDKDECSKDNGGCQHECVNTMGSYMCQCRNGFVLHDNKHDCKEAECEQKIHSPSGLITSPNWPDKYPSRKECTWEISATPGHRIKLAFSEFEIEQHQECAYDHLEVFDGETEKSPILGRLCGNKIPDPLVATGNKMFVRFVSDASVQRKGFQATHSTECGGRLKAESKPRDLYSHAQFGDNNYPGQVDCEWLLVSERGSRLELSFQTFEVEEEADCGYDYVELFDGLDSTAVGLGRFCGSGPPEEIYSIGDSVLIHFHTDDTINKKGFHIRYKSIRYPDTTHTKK

T2: Cyno TLL1 (cyno, UniProt A0A1D5QYV0 148-1013 (rhesus entry))
T2 sequence: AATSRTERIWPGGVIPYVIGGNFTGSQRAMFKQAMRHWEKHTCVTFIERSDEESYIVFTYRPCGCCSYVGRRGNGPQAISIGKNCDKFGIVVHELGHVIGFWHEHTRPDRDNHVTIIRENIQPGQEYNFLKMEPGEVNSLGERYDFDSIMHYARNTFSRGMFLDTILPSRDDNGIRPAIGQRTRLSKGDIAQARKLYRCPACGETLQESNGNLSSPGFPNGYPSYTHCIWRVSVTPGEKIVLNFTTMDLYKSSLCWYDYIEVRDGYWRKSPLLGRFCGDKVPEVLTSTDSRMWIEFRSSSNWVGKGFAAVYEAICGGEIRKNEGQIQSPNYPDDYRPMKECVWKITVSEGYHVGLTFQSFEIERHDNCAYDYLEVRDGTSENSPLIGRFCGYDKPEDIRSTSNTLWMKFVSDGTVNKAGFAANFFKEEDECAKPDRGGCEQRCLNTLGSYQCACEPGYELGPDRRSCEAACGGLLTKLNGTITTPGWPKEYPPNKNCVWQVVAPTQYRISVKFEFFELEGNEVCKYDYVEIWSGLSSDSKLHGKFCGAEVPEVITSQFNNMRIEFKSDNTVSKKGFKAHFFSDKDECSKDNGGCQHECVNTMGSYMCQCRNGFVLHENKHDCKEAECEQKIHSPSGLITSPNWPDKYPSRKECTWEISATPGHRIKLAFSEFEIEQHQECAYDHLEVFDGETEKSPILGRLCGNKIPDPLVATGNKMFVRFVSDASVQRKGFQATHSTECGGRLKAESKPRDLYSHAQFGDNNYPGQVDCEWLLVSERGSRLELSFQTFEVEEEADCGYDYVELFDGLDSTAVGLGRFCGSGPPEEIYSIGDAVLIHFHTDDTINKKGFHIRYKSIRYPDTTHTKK

T3: Human TLL2 (human, UniProt Q9Y6L7 150-1015, limits assumed)
T3 sequence (looked up): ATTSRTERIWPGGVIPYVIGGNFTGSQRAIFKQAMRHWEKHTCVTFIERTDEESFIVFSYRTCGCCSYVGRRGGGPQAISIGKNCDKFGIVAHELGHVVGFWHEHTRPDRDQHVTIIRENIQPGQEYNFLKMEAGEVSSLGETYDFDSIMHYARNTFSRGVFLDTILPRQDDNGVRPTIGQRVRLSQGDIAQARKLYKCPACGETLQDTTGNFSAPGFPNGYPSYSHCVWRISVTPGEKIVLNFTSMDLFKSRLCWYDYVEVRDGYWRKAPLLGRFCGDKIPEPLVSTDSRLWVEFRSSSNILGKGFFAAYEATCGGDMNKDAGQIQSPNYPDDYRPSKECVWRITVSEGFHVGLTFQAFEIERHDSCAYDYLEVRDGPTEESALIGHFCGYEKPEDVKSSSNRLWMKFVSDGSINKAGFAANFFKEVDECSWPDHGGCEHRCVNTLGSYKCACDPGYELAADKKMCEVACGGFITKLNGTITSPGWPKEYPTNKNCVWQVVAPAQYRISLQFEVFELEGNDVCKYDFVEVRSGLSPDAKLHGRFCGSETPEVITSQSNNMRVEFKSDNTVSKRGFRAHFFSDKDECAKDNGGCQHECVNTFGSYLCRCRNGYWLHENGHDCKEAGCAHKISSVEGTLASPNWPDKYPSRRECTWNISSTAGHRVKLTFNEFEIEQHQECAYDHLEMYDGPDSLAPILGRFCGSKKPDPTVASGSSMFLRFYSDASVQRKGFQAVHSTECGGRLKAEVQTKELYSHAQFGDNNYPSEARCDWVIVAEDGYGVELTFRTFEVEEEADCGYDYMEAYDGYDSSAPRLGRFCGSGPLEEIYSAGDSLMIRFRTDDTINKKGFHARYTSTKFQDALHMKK


Legend:
Test in all cases: cell-based or functional assay
[1] = target: T1, Human TLL1
[2] = target: T2, Cyno TLL1
[3] = target: T3, Human TLL2

IC50, FRET enzyme activity, 250 pM biotinylated huTLL-1 [1] | IC50, FRET enzyme activity, 750 pM biotinylated cynoTLL-1 [2] | IC50, FRET enzyme activity, 500 pM huTLL-2 [3] | Binder
30 pM | 70 pM | 40 pM | 13Y039-4B06-4324 (antibody, human IgG1, kappa, V domains shown, Fully human IgG1 LAGA, kappa; HEK expressed) VH: QVQLVQSGAEVKKPGASVKVSCKASGYTFRGYYMSWVRQAPGQGLEWMGWINPMSGETNYAQKFQGRVTMTRDTSISTAYMELSRLRSDDTAVYYCARDTGELDGMNWYFDLWGRGTLVTVSS VL: EIVLTQSPATLSLSPGERATLSCRASQSVSSYLAWYQQKPGQAPRLLIYDASNRATGIPARFSGSGSGTDFTLTISSLEPEDFAVYYCQQSDSWPPTFGGGTKVEIKR
10 pM | 20 pM | 30 pM | 13Y039-4B06-4327 (antibody, human IgG1, kappa, V domains shown, Fully human IgG1 LAGA, kappa; HEK expressed) VH: QVQLVQSGAEVKKPGASVKVSCKASGYTFPGYYMTWVRQAPGQGLEWMGNINPNSGWTNYAQKFQGRVTMTRDTSISTAYMELSRLRSDDTAVYYCARDTGELDGMNWYFDLWGRGTLVTVSS VL: EIVLTQSPATLSLSPGERATLSCRASQSVSSYLAWYQQKPGQAPRLLIYDASNRATGIPARFSGSGSGTDFTLTISSLEPEDFAVYYCQQSDSWPPTFGGGTKVEIKR
20 pM | 50 pM | 50 pM | 13Y039-4B06-4325 (antibody, human IgG1, kappa, V domains shown, Fully human IgG1 LAGA, kappa; HEK expressed) VH: QVQLVQSGAEVKKPGASVKVSCKASGYTFWGYYMSWVRQAPGQGLEWMGWINPQSGETNYAQKFQGRVTMTRDTSISTAYMELSRLRSDDTAVYYCARDTGELDGMNWYFDLWGRGTLVTVSS VL: EIVLTQSPATLSLSPGERATLSCRASQSVSSYLAWYQQKPGQAPRLLIYDASNRATGIPARFSGSGSGTDFTLTISSLEPEDFAVYYCQQSDSWPPTFGGGTKVEIKR
50 pM | 0.13 nM | 30 pM | 13Y039-4B06-4351 (antibody, human IgG1, kappa, V domains shown, Fully human IgG1 LAGA, kappa; HEK expressed) VH: QVQLVQSGAEVKKPGASVKVSCKASGYTFSGYYMSWVRQAPGQGLEWMGWINPNSGETFYAQKFQGRVTMTRDTSISTAYMELSRLRSDDTAVYYCARDTGELDGMNWYFDLWGRGTLVTVSS VL: EIVLTQSPATLSLSPGERATLSCRASQSVSSYLAWYQQKPGQAPRLLIYDASNRATGIPARFSGSGSGTDFTLTISSLEPEDFAVYYCQQSDSWPPTFGGGTKVEIKR
40 pM | 70 pM | 20 pM | 13Y039-4B06-4328 (antibody, human IgG1, kappa, V domains shown, Fully human IgG1 LAGA, kappa; HEK expressed) VH: QVQLVQSGAEVKKPGASVKVSCKASGYTFHGYYMNWVRQAPGQGLEWMGWINPLSGETNYAQKFQGRVTMTRDTSISTAYMELSRLRSDDTAVYYCARDTGELDGMNWYFDLWGRGTLVTVSS VL: EIVLTQSPATLSLSPGERATLSCRASQSVSSYLAWYQQKPGQAPRLLIYDASNRATGIPARFSGSGSGTDFTLTISSLEPEDFAVYYCQQSDSWPPTFGGGTKVEIKR
40 pM | 0.18 nM | 40 pM | 13Y039-4B06-4348 (antibody, human IgG1, kappa, V domains shown, Fully human IgG1 LAGA, kappa; HEK expressed) VH: QVQLVQSGAEVKKPGASVKVSCKASGYTFGGYYMSWVRQAPGQGLEWMGWINPNSGETYYAQKFQGRVTMTRDTSISTAYMELSRLRSDDTAVYYCARDTGELDGMNWYFDLWGRGTLVTVSS VL: EIVLTQSPATLSLSPGERATLSCRASQSVSSYLAWYQQKPGQAPRLLIYDASNRATGIPARFSGSGSGTDFTLTISSLEPEDFAVYYCQQSDSWPPTFGGGTKVEIKR
18.2 nM | 0.22 nM | 0.15 nM | 13Y039-127G03-2890 (antibody, human IgG1, kappa, V domains shown, Fully human IgG1 LAGA, kappa; HEK expressed) VH: QVQLVQSGAEVKKPGSSVKVSCKASGGTFSSYAISWVRQAPGQGLEWMGGIIPVFGSAYYAQKFQGRVTITADESTSTAYMELSSLRSEDTAVYYCAGEGRAYYGSESYDDSDYMDVWGKGTTVTVSS VL: DIQMTQSPSSLSASVGDRVTITCQASQDISNYLNWYQQKPGKAPKLLIYDASNLETGVPSRFSGSGSGTDFTFTISSLQPEDIATYYCQQADIFPLTFGGGTKVEIKR
50 pM | 60 pM | 0.28 nM | 13Y039-152B02-2940 (antibody, human IgG1, kappa, V domains shown, Fully human IgG1 LAGA, kappa; HEK expressed) VH: QVQLVQSGAEVKKPGSSVKVSCKASGGTFSSDAISWVRQAPGQGLEWMGGIITNFGTATYAQKFQGRVTITADESTSTAYMELSSLRSEDTAVYYCARDVGVQLVYHGAFDIWGQGTMVTVSS VL: DIQMTQSPSSLSASVGDRVTITCQASQDISNYLNWYQQKPGKAPKLLIYDASNLATGVPSRFSGSGSGTDFTFTISSLQPEDIATYYCQQDDYLPITFGGGTKVEIKR
90 pM | 0.11 nM | 0.2 nM | 13Y039-152B02-2935 (antibody, human IgG1, kappa, V domains shown, Fully human IgG1 LAGA, kappa; HEK expressed) VH: QVQLVQSGAEVKKPGSSVKVSCKASGGTFSESAISWVRQAPGQGLEWMGGIIPTFDTTNYAQKFQGRVTITADESTSTAYMELSSLRSEDTAVYYCARDVGVQLVYHGAFDIWGQGTMVTVSS VL: DIQMTQSPSSLSASVGDRVTITCQASQDISNYLNWYQQKPGKAPKLLIYDASNLATGVPSRFSGSGSGTDFTFTISSLQPEDIATYYCQQDDYLPITFGGGTKVEIKR
80 pM | 70 pM | 0.86 nM | 13Y039-152B02-2948 (antibody, human IgG1, kappa, V domains shown, Fully human IgG1 LAGA, kappa; HEK expressed) VH: QVQLVQSGAEVKKPGSSVKVSCKASGGTFSDFAISWVRQAPGQGLEWMGGIIPIYGTASYAQKFLGRVTITADESTSTAYMELSSLRSEDTAVYYCARDVGVQLVYHGAFDIWGQGTMVTVSS VL: DIQMTQSPSSLSASVGDRVTITCQASQDISNYLNWYQQKPGKAPKLLIYDASNLATGVPSRFSGSGSGTDFTFTISSLQPEDIATYYCQQDDYLPITFGGGTKVEIKR
